tested on: Escherichia coli TOP10; assay: shrunken log2 fold change of peptide-encoding DNA abundance (4.5 h post-induction vs induction); higher = less antimicrobial activity (less host growth inhibition); conditions: time post-induction: 4.5 h; library: site-saturation at positions 5, 18, 19, 20
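Further: peptides expressed intracellularly from a pBAD plasmid library in pooled LB shake-flask culture, induced with 0.3% L-arabinose, DNA abundance read by NGS, three biological replicates, DESeq2 with apeglm shrinkage.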

| Sequence | shrunken log2 fold change |
| --- | --- |
| RRIRMRPPRLPRPRPRPWLHPRP | -0.493 |
| RRIRIRPPRLPRPRPRPKQVPRP | -0.118 |
| RRIRDRPPRLPRPRPRPCSIPRP | -0.0309 |
| RRIRIRPPRLPRPRPRPSVPPRP | -0.835 |
| RRIRPRPPRLPRPRPRPCITPRP | -0.373 |
| RRIRARPPRLPRPRPRPYAIPRP | 2.12 |
| RRIRQRPPRLPRPRPRPHTQPRP | 0.0338 |
| RRIRNRPPRLPRPRPRPYKMPRP | -0.0115 |
| RRIRMRPPRLPRPRPRPPQSPRP | 0.721 |
| RRIRHRPPRLPRPRPRPMIQPRP | -0.0673 |
| RRIRDRPPRLPRPRPRPVGIPRP | -0.0542 |
| RRIRWRPPRLPRPRPRPDPPPRP | 0.575 |
| RRIRYRPPRLPRPRPRPPCIPRP | -0.583 |
| RRIRQRPPRLPRPRPRPRMFPRP | 0.0604 |
| RRIRPRPPRLPRPRPRPTNEPRP | 0.0205 |
| RRIRIRPPRLPRPRPRPWNCPRP | -0.000121 |
| RRIRQRPPRLPRPRPRPIRMPRP | -0.291 |
| RRIRTRPPRLPRPRPRPYSQPRP | -0.0274 |
| RRIRYRPPRLPRPRPRPRMVPRP | -0.475 |
| RRIRHRPPRLPRPRPRPGGRPRP | 0.0167 |
| RRIRCRPPRLPRPRPRPGGHPRP | 0.286 |
| RRIRSRPPRLPRPRPRPSSAPRP | -0.0109 |
| RRIRTRPPRLPRPRPRPWSEPRP | -0.364 |
| RRIRERPPRLPRPRPRPLTWPRP | 3.04 |
| RRIRFRPPRLPRPRPRPEQFPRP | -0.115 |

| Sequence | shrunken log2 fold change |
| --- | --- |
| RRIRLRPPRLPRPRPRPLGAPRP | 0.387 |
| RRIRTRPPRLPRPRPRPMGDPRP | -0.0264 |
| RRIRPRPPRLPRPRPRPFQHPRP | -0.00804 |
| RRIRNRPPRLPRPRPRPQSSPRP | -0.0447 |
| RRIRARPPRLPRPRPRPPQEPRP | 0.854 |
| RRIRRRPPRLPRPRPRPPCVPRP | 1.02 |
| RRIRRRPPRLPRPRPRPFMRPRP | 0.341 |
| RRIRVRPPRLPRPRPRPQTRPRP | 0.355 |
| RRIRSRPPRLPRPRPRPFNKPRP | -0.81 |
| RRIRGRPPRLPRPRPRPGCAPRP | 1.33 |
| RRIRYRPPRLPRPRPRPQDNPRP | -0.024 |
| RRIRQRPPRLPRPRPRPMGWPRP | 0.379 |
| RRIRARPPRLPRPRPRPCGNPRP | 0.0115 |
| RRIRIRPPRLPRPRPRPYFMPRP | -1.21 |
| RRIRRRPPRLPRPRPRPRDNPRP | 0.15 |
| RRIRSRPPRLPRPRPRPQETPRP | 0.0728 |
| RRIRARPPRLPRPRPRPYCMPRP | -0.495 |
| RRIRPRPPRLPRPRPRPPNMPRP | -0.0209 |
| RRIRRRPPRLPRPRPRPWPGPRP | 0.287 |
| RRIRSRPPRLPRPRPRPRHQPRP | -0.119 |
| RRIRGRPPRLPRPRPRPGSWPRP | 0.938 |
| RRIRLRPPRLPRPRPRPNRNPRP | -0.884 |
| RRIRIRPPRLPRPRPRPTDRPRP | -0.192 |
| RRIRRRPPRLPRPRPRPVMMPRP | -0.0277 |
| RRIRWRPPRLPRPRPRPWRCPRP | 0.144 |

| Sequence | shrunken log2 fold change |
| --- | --- |
| RRIRPRPPRLPRPRPRPRRTPRP | 0.507 |
| RRIRMRPPRLPRPRPRPQWMPRP | 0.109 |
| RRIRMRPPRLPRPRPRPVRVPRP | 1.74 |
| RRIRIRPPRLPRPRPRPCMTPRP | -0.337 |
| RRIRYRPPRLPRPRPRPFNHPRP | -0.732 |
| RRIRFRPPRLPRPRPRPIRWPRP | 0.0239 |
| RRIRLRPPRLPRPRPRPEDRPRP | -0.0181 |
| RRIRSRPPRLPRPRPRPNYSPRP | -0.401 |
| RRIRRRPPRLPRPRPRPGTKPRP | 0.0056 |
| RRIRPRPPRLPRPRPRPWFIPRP | -0.298 |
| RRIRKRPPRLPRPRPRPVNLPRP | -0.0889 |
| RRIRTRPPRLPRPRPRPILPPRP | -0.066 |
| RRIRMRPPRLPRPRPRPRHCPRP | 0.28 |
| RRIRLRPPRLPRPRPRPNFPPRP | -0.00674 |
| RRIRWRPPRLPRPRPRPKMCPRP | -0.0087 |
| RRIRGRPPRLPRPRPRPMFSPRP | 0.147 |
| RRIRCRPPRLPRPRPRPIIMPRP | -0.888 |
| RRIRARPPRLPRPRPRPNWVPRP | -0.361 |
| RRIRFRPPRLPRPRPRPQVLPRP | -0.00198 |
| RRIRYRPPRLPRPRPRPPSCPRP | -0.00175 |
| RRIRMRPPRLPRPRPRPQHVPRP | 0.0365 |
| RRIRMRPPRLPRPRPRPVVYPRP | -0.0377 |
| RRIRIRPPRLPRPRPRPPDFPRP | 0.189 |
| RRIRWRPPRLPRPRPRPYAIPRP | -0.347 |
| RRIRCRPPRLPRPRPRPQIRPRP | -0.332 |
